B1: FLATFPLAAV (peptide)
peptide: FLATFPLAAV
B2: TLFFQQNAL (peptide)
peptide: TLFFQQNAL
B3: RQISIRGIVGV (peptide)
peptide: RQISIRGIVGV
B4: GLFPVTPEAV (peptide)
peptide: GLFPVTPEAV
B5: ALQRKLPYV (peptide)
peptide: ALQRKLPYV
B6: FLSSLTETI (peptide)
peptide: FLSSLTETI
B7: LLQEGQALEYV (peptide)
peptide: LLQEGQALEYV
B8: KMLDGASFTL (peptide)
peptide: KMLDGASFTL
B9: QLLDADGFLNV (peptide)
peptide: QLLDADGFLNV
B10: ALPLFVITV (peptide)
peptide: ALPLFVITV
B11: GLFADLLPRL (peptide)
peptide: GLFADLLPRL
B12: KIFEMLEGV (peptide)
peptide: KIFEMLEGV
B13: YLYSVEIKL (peptide)
peptide: YLYSVEIKL
B14: ALGPEGGRV (peptide)
peptide: ALGPEGGRV
B15: KTINKVPTV (peptide)
peptide: KTINKVPTV
B16: ALQDVPLSSV (peptide)
peptide: ALQDVPLSSV
B17: LLFGSVQEV (peptide)
peptide: LLFGSVQEV
B18: RLVDYLEGI (peptide)
peptide: RLVDYLEGI
B19: ALLDQQGSRWTL (peptide)
peptide: ALLDQQGSRWTL
B20: KIAENVEEV (peptide)
peptide: KIAENVEEV
B21: SLYPGTETMGL (peptide)
peptide: SLYPGTETMGL
B22: VLQEGKLQKLAQL (peptide)
peptide: VLQEGKLQKLAQL
B23: SLWPDPMEV (peptide)
peptide: SLWPDPMEV
B24: GLTSTNAEV (peptide)
peptide: GLTSTNAEV
B25: KISPVTFSV (peptide)
peptide: KISPVTFSV
B26: KLIESKHEV (peptide)
peptide: KLIESKHEV
B27: LLLNAVLTV (peptide)
peptide: LLLNAVLTV
B28: LLWPGAALL (peptide)
peptide: LLWPGAALL
B29: ALWDQDNLSV (peptide)
peptide: ALWDQDNLSV
B30: FLLDLDPLLL (peptide)
peptide: FLLDLDPLLL
B31: QLINHLHAV (peptide)
peptide: QLINHLHAV
B32: NLWEDPYYL (peptide)
peptide: NLWEDPYYL
B33: ALIHPVSTV (peptide)
peptide: ALIHPVSTV
B34: YLMDESLNL (peptide)
peptide: YLMDESLNL
B35: SALEELVNV (peptide)
peptide: SALEELVNV
B36: KLSDIGITV (peptide)
peptide: KLSDIGITV
B37: LLQKFVPEI (peptide)
peptide: LLQKFVPEI
B38: ALYEEGLLL (peptide)
peptide: ALYEEGLLL
B39: NLIENVQRL (peptide)
peptide: NLIENVQRL
B40: ALLENIALYL (peptide)
peptide: ALLENIALYL
B41: TLIDAQWVL (peptide)
peptide: TLIDAQWVL
B42: SLLKVLPAL (peptide)
peptide: SLLKVLPAL
B43: MLYVVPIYL (peptide)
peptide: MLYVVPIYL
B44: ALMNTLLYL (peptide)
peptide: ALMNTLLYL
B45: AAYGGLNEKSFV (peptide)
peptide: AAYGGLNEKSFV
B46: AMQEYIAVV (peptide)
peptide: AMQEYIAVV
B47: RLPGPLGTV (peptide)
peptide: RLPGPLGTV
B48: ILVDWLVEV (peptide)
peptide: ILVDWLVEV
B49: ILVDWLVQV (peptide)
peptide: ILVDWLVQV
B50: FLSPQQPPLLL (peptide)
peptide: FLSPQQPPLLL
B51: ALLEAQDVELYL (peptide)
peptide: ALLEAQDVELYL
B52: VLSETLYEL (peptide)
peptide: VLSETLYEL
B53: ALMEDTGRQML (peptide)
peptide: ALMEDTGRQML
B54: YLNDLHEVLL (peptide)
peptide: YLNDLHEVLL
B55: GLLEAKVSL (peptide)
peptide: GLLEAKVSL
B56: ALLEASGTLLL (peptide)
peptide: ALLEASGTLLL
B57: VLLTFKIFL (peptide)
peptide: VLLTFKIFL
B58: YLISFQTHI (peptide)
peptide: YLISFQTHI
B59: AAFAGKLLSV (peptide)
peptide: AAFAGKLLSV
B60: ILLEQAFYL (peptide)
peptide: ILLEQAFYL
B61: SLVEVNPAYSV (peptide)
peptide: SLVEVNPAYSV
B62: AIAYILQGV (peptide)
peptide: AIAYILQGV
B63: LLLNELPSV (peptide)
peptide: LLLNELPSV
B64: SLFGGTEITI (peptide)
peptide: SLFGGTEITI
B65: SMIDDLLGV (peptide)
peptide: SMIDDLLGV
B66: LLWEVVSQL (peptide)
peptide: LLWEVVSQL
B67: VLLPNDLLEKV (peptide)
peptide: VLLPNDLLEKV
B68: VLFQGQASL (peptide)
peptide: VLFQGQASL
B69: FLFPNQYVDV (peptide)
peptide: FLFPNQYVDV
B70: LLDGFLVNV (peptide)
peptide: LLDGFLVNV

What follows are binders tested against T1, HLA-A*02:01 (human) (assay: UV peptide exchange ELISA).
T1 construct: monomers captured on streptavidin plates; also called MHC class I
Source text: Candidate peptides for T cell based therapies according to the present invention were further tested for their MHC binding capacity (affinity). The individual peptide-MHC complexes were produced by UV-ligand exchange, where a UV-sensitive peptide is cleaved upon UV-irradiation, and exchanged with the peptide of interest as analyzed. Only peptide candidates that can effectively bind and stabilize the peptide-receptive MHC molecules prevent dissociation of the MHC complexes. To determine the yield of the exchange reaction, an ELISA was performed based on the detection of the light chain (p2m) of stabilized MHC complexes.
96 well MAXISorp plates (NUNC) were coated over night with 2 μg/ml streptavidin in PBS at room temperature, washed 4× and blocked for 1 h at 37° C. in 2% BSA containing blocking buffer. […] Peptide-MHC monomers of the UV-exchange reaction were diluted 100 fold in blocking buffer. Samples were incubated for 1h at 37° C., washed four times, incubated with 2 μg/ml HRP conjugated anti-p2m for 1h at 37° C., washed again and detected with TMB solution that is stopped with […]. Absorption was measured at 450 nm.

Row | Binder | peptide exchange yield [%]
1 | B1 | ≥ 75
2 | B2 | 20 to 50
3 | B3 | 50 to 75
4 | B4 | 50 to 75
5 | B5 | 50 to 75
6 | B6 | 50 to 75
7 | B7 | 20 to 50
8 | B8 | 50 to 75
9 | B9 | 50 to 75
10 | B10 | 50 to 75
11 | B11 | 50 to 75
12 | B12 | 50 to 75
13 | B13 | ≥ 75
14 | B14 | 20 to 50
15 | B15 | 50 to 75
16 | B16 | 50 to 75
17 | B17 | 50 to 75
18 | B18 | 50 to 75
19 | B19 | 50 to 75
20 | B20 | 20 to 50
21 | B21 | 50 to 75
22 | B22 | 50 to 75
23 | B23 | 50 to 75
24 | B24 | 20 to 50

Row | Binder | peptide exchange yield [%]
25 | B25 | 50 to 75
26 | B26 | 20 to 50
27 | B27 | 20 to 50
28 | B28 | 20 to 50
29 | B29 | 20 to 50
30 | B30 | 50 to 75
31 | B31 | 50 to 75
32 | B32 | 50 to 75
33 | B33 | 20 to 50
34 | B34 | 50 to 75
35 | B35 | 20 to 50
36 | B36 | 50 to 75
37 | B37 | 20 to 50
38 | B38 | 20 to 50
39 | B39 | 20 to 50
40 | B40 | 50 to 75
41 | B41 | 50 to 75
42 | B42 | 50 to 75
43 | B43 | 20 to 50
44 | B44 | 20 to 50
45 | B45 | 50 to 75
46 | B46 | 20 to 50
47 | B47 | 20 to 50
48 | B48 | 10 to 20

Row | Binder | peptide exchange yield [%]
49 | B49 | 50 to 75
50 | B50 | 20 to 50
51 | B51 | 20 to 50
52 | B52 | 20 to 50
53 | B53 | 20 to 50
54 | B54 | ≥ 75
55 | B55 | 50 to 75
56 | B56 | ≥ 75
57 | B57 | 20 to 50
58 | B58 | 50 to 75
59 | B59 | 50 to 75
60 | B60 | 50 to 75
61 | B61 | 50 to 75
62 | B62 | 20 to 50
63 | B63 | 50 to 75
64 | B64 | 50 to 75
65 | B65 | 50 to 75
66 | B66 | 50 to 75
67 | B67 | 50 to 75
68 | B68 | 50 to 75
69 | B69 | 50 to 75
70 | B70 | 50 to 75
